Article PMC4806843, “Structural and Functional Analysis of Calcium Ion Mediated Binding of 5-Lipoxygenase to Nanodiscs” (PLoS ONE, 2016)

Target: the molecule itself
Assay: SEC; size exclusion chromatography of the purified 5LO preparation; standards aldolase (158 kDa) and conalbumin (75 kDa); two peaks, dimer and monomer

B1: human 5-lipoxygenase (enzyme, UniProt P09917 1-674, looked up)
chain: MPSYTVTVATGSQWFAGTDDYIYLSLVGSAGCSEKHLLDKPFYNDFERGAVDSYDVTVDEELGEIQLVRIEKRKYWLNDDWYLKYITLKTPHGDYIEFPCYRWITGDVEVVLRDGRAKLARDDQIHILKQHRRKELETRQKQYRWMEWNPGFPLSIDAKCHKDLPRDIQFDSEKGVDFVLNYSKAMENLFINRFMHMFQSSWNDFADFEKIFVKISNTISERVMNHWQEDLMFGYQFLNGCNPVLIRRCTELPEKLPVTTEMVECSLERQLSLEQEVQQGNIFIVDFELLDGIDANKTDPCTLQFLAAPICLLYKNLANKIVPIAIQLNQIPGDENPIFLPSDAKYDWLLAKIWVRSSDFHVHQTITHLLRTHLVSEVFGIAMYRQLPAVHPIFKLLVAHVRFTIAINTKAREQLICECGLFDKANATGGGGHVQMVQRAMKDLTYASLCFPEAIKARGMESKEDIPYYFYRDDGLLVWEAIRTFTAEVVDIYYEGDQVVEEDPELQDFVNDVYVYGMRGRKSSGFPKSVKSREQLSEYLTVVIFTASAQHAAVNFGQYDWCSWIPNAPPTMRAPPPTAKGVVTIEQIVDTLPDRGRSCWHLGAVWALSQFQENELFLGMYPEEHFIEKPVKEAMARFRKNLEAIVSVIAERNKKKQLPYYYLSPDRIPNSVAI
notes: 5-lipoxygenase (5LO), human, recombinant from pT3-5LO; 78 kDa; The preparation holds monomer and dimer, which were separated by SEC; also called 5LO; monomeric 5LO; source: E. coli BL21-(DE3) transformed with pT3-5LO, purified (ammonium sulfate precipitation, ATP agarose, gel filtration)
B1 was tested, and the “stoichiometry N” value was 2.
